Data set [1] addresses T1, MbpAgo WT (Mucilaginibacter paludis, UniProt H1YCU5 1-795).
T1 sequence: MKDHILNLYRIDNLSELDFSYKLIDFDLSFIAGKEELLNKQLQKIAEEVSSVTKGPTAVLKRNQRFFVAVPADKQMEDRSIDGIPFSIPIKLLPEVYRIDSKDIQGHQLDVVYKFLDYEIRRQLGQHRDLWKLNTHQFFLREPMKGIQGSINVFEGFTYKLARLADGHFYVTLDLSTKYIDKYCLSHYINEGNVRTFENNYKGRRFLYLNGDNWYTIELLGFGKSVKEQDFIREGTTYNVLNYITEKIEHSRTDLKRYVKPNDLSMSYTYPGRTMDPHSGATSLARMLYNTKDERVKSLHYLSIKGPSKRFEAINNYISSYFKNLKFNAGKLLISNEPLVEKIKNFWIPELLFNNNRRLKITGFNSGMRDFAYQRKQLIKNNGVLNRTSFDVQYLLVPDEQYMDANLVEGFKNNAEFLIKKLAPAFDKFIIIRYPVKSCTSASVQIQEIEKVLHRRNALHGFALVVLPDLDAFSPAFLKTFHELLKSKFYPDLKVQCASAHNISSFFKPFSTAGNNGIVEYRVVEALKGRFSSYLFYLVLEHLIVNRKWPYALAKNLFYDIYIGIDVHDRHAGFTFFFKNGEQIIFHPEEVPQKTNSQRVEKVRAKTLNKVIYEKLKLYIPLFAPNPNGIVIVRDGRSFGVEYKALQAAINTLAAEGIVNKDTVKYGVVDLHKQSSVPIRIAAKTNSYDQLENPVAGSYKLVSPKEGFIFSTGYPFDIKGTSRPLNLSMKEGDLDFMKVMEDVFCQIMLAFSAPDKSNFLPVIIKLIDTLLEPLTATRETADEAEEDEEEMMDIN
Kind of data set: EMSA.

For data set [2], the target named is T1, MbpAgo WT. Kind of data set: EMSA. This is another data set of the same source. (In general: A gel shift assay detects complexes by their altered migration in electrophoresis.)

Where two headings read alike, the source gives them in different places.

B1: T-gDNA iFAM, 5'OH (ssDNA)
DNA: TGAGGTAGTAGGTTGT
As for B1, the Kd (as a rule, a measure of binding affinity in units of concentration) with MbpAgo WT [1] came to 162 ± 4.8 nM; in the data set with MbpAgo WT [2] it was 148 ± 5.8 nM.

B2: T-gDNA iFAM, 5'P (ssDNA)
DNA: TGAGGTAGTAGGTTGT
modifications: 5' phosphate
B2: the Kd was determined as 205 ± 7.6 nM with MbpAgo WT [1] and 111 ± 3 nM with MbpAgo WT [2].

The record behind these values is paper PMC9122594.
